Source: patent US20090074795A1, “Methods for addressing ocular diseases through interference with the wnt signaling pathway” (priority 2007, published 2009)

Tests used:
[1] = test system: STZ-diabetic rats; test: Retinal ICAM-1 (sICAM-1 ELISA) after intravitreal DKK1 in STZ-diabetic rats; type: in vivo, rat; details: different doses intravitreal, STZ-diabetic rats 16 weeks after onset, 2 days after injection, vs BSA
Protocol: To determine the role of wnt pathway in retinal inflammation in diabetic retinopathy, different doses of purified DKK1, a specific inhibitor of the wnt pathway, was injected into the vitreous of the right eye of STZ-diabetic rats. As shown by ELISA, diabetes induced over-expression of ICAM-1 in the retina.
According to embodiments of experimental data shown in FIG. 13, different doses of purified DKK1 were injected intravitrealy into the right eye of STZ-diabetic rats at 16 weeks following the onset of diabetes, and the same amounts of BSA into the left eye for control. Soluble ICAM-1 was measured at 2 days after the injection using the sICAM-1 ELISA kit, normalized by total protein concentrations and expressed as ng.
(§1) Intravitreal injection: All solutions will be sterilized by filtration and assessed for endotoxin. Animals will be anesthetized, and compounds will be injected into the vitreous of the one eye through the pars plana using a Hamilton syringe. The left eye will receive the same volume of vehicle and will be used as the control. Following injection, the animals will receive equal amounts of topical antibiotic ointment on both eyes. The animals will then be kept in normoxic conditions until the necessary time point for evaluation

[2] = test system: bovine retinal capillary endothelial cells (BRCEC); test: Intracellular ROS generation assay in BRCEC; type: cell-based; details: DKK1 6.25-100 nM, 2 h, CM-H2DCFDA
Protocol: A primary culture of bovine retinal capillary endothelial cells (BRCEC) were exposed to 30 mM glucose or TNF-α in the absence or presence of various concentrations of DKK1 (6.25-100 nM) for 2 h. Aminoguanidine was used as a positive control as it is a known inhibitor of ROS generation.
According to embodiments of experimental data shown in FIG. 14, BRCEC were exposed to 30 mM glucose or 1 μg/ml TNF-α in the absence or presence of various concentrations of DKK1 (6.25-100 nM) for 2 h, 10 μM aminoguanidine (AG) was used as positive control. Intracellular ROS generation was measured using CM-H2DCFDA, and expressed as fluorescent unit per well (means±SD, n=3).

[3] = test system: OIR rats; test: Retinal VEGF (western blot) after intravitreal DKK1 in OIR rats; type: in vivo, rat; details: 3 μg/eye intravitreal at P15, retinas at P18, western blot, vs BSA
Protocol: To determine the effect of the wnt pathway blockade of the VEGF expression induced by ischemia, DKK1 was injected into the vitreous of the OIR rats at P15. The rats were then maintained in normoxia for 3 days, and the VEGF expression in the retina was measured.
The same amount of BSA was injected as control. The same amount of total protein from each rat was used for western blot analysis using specific antibody for VEGF. Each lane represents an individual rat.
as §1

[4] = test system: OIR rats; test: Retinal NV by fluorescein angiography in OIR rats; type: in vivo, rat; details: 3 μl of 1 μg/μl intravitreal at P15, fluorescein angiography at P18, vs BSA
Protocol: To determine the anti-angiogenic effect of DKK1 on retinal NV, DKK1 was injected (3 μl of 1 μg/μl DKK1) into the vitreous of the OIR rats at P15. At the time, NV had partially formed in the OIR rats at P15. The rats were then maintained in normoxia for 3 days, and then the retinal NV was examined using fluorescein angiography on retinal whole mounts at P18.
According to embodiments of experimental data and as shown in FIGS. 19A-19D, the OIR model was generated by exposure of BN rats to 75% oxygen for 5 days (P7-P12). At age of P15, OIR BN rats received a single intravitreal injection of DKK1 into the right eye and the same amount of BSA into the left eye. At P18, retinal vasculature was visualized using fluorescein angiography on the whole-mounted retinas from the left eye injected with BSA (FIGS. 19A and 19B) and the right eyes injected with DKK1 (FIGS. 19C and 19D) by angiography at P18.
Fluorescein Angiography: Angiograms were performed using intracardiac injection of 10 mg/ml fluorescein isothiocyanate-conjugated high molecular weight dextran (Sigma, FD-2000S) in deeply anesthetized mice. Eyes were dissected and fixed with 4% paraformaldehyde in Hanks' balanced saline prepared immediately before use for overnight at 4° C., and retinas were flat-mounted in Fluoromount-G.

B1: DKK1: Purified Dickkopf-1 protein (R&D System), specific inhibitor of the wnt pathway binding LRP5/6; mouse protein in mice, human in HUVEC (protein, UniProt O54908 32-272; O54908 32-272, looked up)
Dickkopf-related protein 1 1: TLNSVLINSNAIKNLPPPLGGAGGQPGSAVSVAPGVLYEGGNKYQTLDNYQPYPCAEDEECGSDEYCSSPSRGAAGVGGVQICLACRKRRKRCMRHAMCCPGNYCKNGICMPSDHSHFPRGEIEESIIENLGNDHNAAAGDGYPRRTTLTSKIYHTKGQEGSVCLRSSDCAAGLCCARHFWSKICKPVLKEGQVCTKHKRKGSHGLEIFQRCYCGEGLACRIQKDHHQASNSSRLHTCQRH
Dickkopf-related protein 1 2: B1 Dickkopf-related protein 1 1
modifications: mouse protein in mice, human in HUVEC
ICAM-1 over-expression in the retina [1]: inhibited the ICAM-1 over-expression in a dose-dependent manner | ROS generation induced by TNF-α ([2]; 1 μg/ml TNF-α): blocked the ROS generation | ROS generation induced by high glucose ([2]; 30 mM glucose): blocked the ROS generation | VEGF over-expression in the retina [3]: significantly blocked VEGF over-expression | retinal NV areas [4]: decreased retinal NV areas
